The record followed here is PMC2847587 (Molecular cell, 2010).

The labels stand for the following.
B1: FANCA (natural protein, human (endogenous in HeLa), UniProt O15360 1-1455, looked up)
chain: MSDSWVPNSASGQDPGGRRRAWAELLAGRVKREKYNPERAQKLKESAVRLLRSHQDLNALLLEVEGPLCKKLSLSKVIDCDSSEAYANHSSSFIGSALQDQASRLGVPVGILSAGMVASSVGQICTAPAETSHPVLLTVEQRKKLSSLLEFAQYLLAHSMFSRLSFCQELWKIQSSLLLEAVWHLHVQGIVSLQELLESHPDMHAVGSWLFRNLCCLCEQMEASCQHADVARAMLSDFVQMFVLRGFQKNSDLRRTVEPEKMPQVTVDVLQRMLIFALDALAAGVQEESSTHKIVRCWFGVFSGHTLGSVISTDPLKRFFSHTLTQILTHSPVLKASDAVQMQREWSFARTHPLLTSLYRRLFVMLSAEELVGHLQEVLETQEVHWQRVLSFVSALVVCFPEAQQLLEDWVARLMAQAFESCQLDSMVTAFLVVRQAALEGPSAFLSYADWFKASFGSTRGYHGCSKKALVFLFTFLSELVPFESPRYLQVHILHPPLVPGKYRSLLTDYISLAKTRLADLKVSIENMGLYEDLSSAGDITEPHSQALQDVEKAIMVFEHTGNIPVTVMEASIFRRPYYVSHFLPALLTPRVLPKVPDSRVAFIESLKRADKIPPSLYSTYCQACSAAEEKPEDAALGVRAEPNSAEEPLGQLTAALGELRASMTDPSQRDVISAQVAVISERLRAVLGHNEDDSSVEISKIQLSINTPRLEPREHMAVDLLLTSFCQNLMAASSVAPPERQGPWAALFVRTMCGRVLPAVLTRLCQLLRHQGPSLSAPHVLGLAALAVHLGESRSALPEVDVGPPAPGAGLPVPALFDSLLTCRTRDSLFFCLKFCTAAISYSLCKFSSQSRDTLCSCLSPGLIKKFQFLMFRLFSEARQPLSEEDVASLSWRPLHLPSADWQRAALSLWTHRTFREVLKEEDVHLTYQDWLHLELEIQPEADALSDTERQDFHQWAIHEHFLPESSASGGCDGDLQAACTILVNALMDFHQSSRSYDHSENSDLVFGGRTGNEDIISRLQEMVADLELQQDLIVPLGHTPSQEHFLFEIFRRRLQALTSGWSVAASLQRQRELLMYKRILLRLPSSVLCGSSFQAEQPITARCEQFFHLVNSEMRNFCSHGGALTQDITAHFFRGLLNACLRSRDPSLMVDFILAKCQTKCPLILTSALVWWPSLEPVLLCRWRRHCQSPLPRELQKLQEGRQFASDFLSPEAASPAPNPDWLSAAALHFAIQQVREENIRKQLKKLDCEREELLVFLFFFSLMGLLSSHLTSNSTTDLPKAFHVCAAILECLEKRKISWLALFQLTESDLRLGRLLLRVAPDQHTRLLPFAFYSLLSYFHEDAAIREEAFLHVAVDMYLKLVQLFVAGDTSTVSPPAGRSLELKGQGNPVELITKARLFLLQLIPRCPKKSFSHVAELLADRGDCDPEVSAALQSRQQAAPDADLSQEPHLF
B2: FAAP24 (natural protein, human (endogenous in HeLa), UniProt Q9BTP7 1-215, looked up)
chain: MEKNPPDDTGPVHVPLGHIVANEKWRGSQLAQEMQGKIKLIFEDGLTPDFYLSNRCCILYVTEADLVAGNGYRKRLVRVRNSNNLKGIVVVEKTRMSEQYFPALQKFTVLDLGMVLLPVASQMEASCLVIQLVQEQTKEPSKNPLLGKKRALLLSEPSLLRTVQQIPGVGKVKAPLLLQKFPSIQQLSNASIGELEQVVGQAVAQQIHAFFTQPR

Test in all cases: immunodepletion
The target of the assay “FAAP24” is B2.
Assay [1] addresses MHF1 (FANCM-associated Histone Fold protein 1) (human (endogenous in HeLa), UniProt Q8N2Z9-1 1-138).
Assay [2] deals with MHF2 (FANCM-associated Histone Fold protein 2) (human (endogenous in HeLa), UniProt A8MT69 1-81).
Chain of MHF2 (FANCM-associated Histone Fold protein 2) (A8MT69 whole entry): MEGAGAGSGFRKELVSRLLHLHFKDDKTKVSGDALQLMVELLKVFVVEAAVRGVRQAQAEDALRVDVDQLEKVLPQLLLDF
The assay “FANCA” has as its target B1.

Chain of MHF1 (FANCM-associated Histone Fold protein 1) (Q8N2Z9 whole entry): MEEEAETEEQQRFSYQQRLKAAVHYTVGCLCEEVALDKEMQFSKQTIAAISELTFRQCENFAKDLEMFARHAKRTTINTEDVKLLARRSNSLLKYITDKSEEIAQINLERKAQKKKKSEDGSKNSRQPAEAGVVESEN

B1: the percent co-depleted (with FAAP24; in assay [1]; in assay [2]) was less than 25% throughout.
B2 had a percent co-depleted in the assay with FANCA of less than 30%.
